From article PMC7367873, “Dissecting the sequence determinants for dephosphorylation by the catalytic subunits of phosphatases PP1 and PP2A” (Nature Communications, 2020)

B1: FARP1 (protein, UniProt Q9Y4F1 1-1045, looked up)
FERM, ARHGEF and pleckstrin …: MGEIEQRPTPGSRLGAPENSGISTLERGQKPPPTPSGKLVSIKIQMLDDTQEAFEVPQRAPGKVLLDAVCNHLNLVEGDYFGLEFPDHKKITVWLDLLKPIVKQIRRPKHVVVKFVVKFFPPDHTQLQEELTRYLFALQVKQDLAQGRLTCNDTSAALLISHIVQSEIGDFDEALDREHLAKNKYIPQQDALEDKIVEFHHNHIGQTPAESDFQLLEIARRLEMYGIRLHPAKDREGTKINLAVANTGILVFQGFTKINAFNWAKVRKLSFKRKRFLIKLRPDANSAYQDTLEFLMASRDFCKSFWKICVEHHAFFRLFEEPKPKPKPVLFSRGSSFRFSGRTQKQVLDYVKEGGHKKVQFERKHSKIHSIRSLASQPTELNSEVLEQSQQSTSLTFGEGAESPGGQSCRRGKEPKVSAGEPGSHPSPAPRRSPAGNKQADGAASAPTEEEEEVVKDRTQQSKPQPPQPSTGSLTGSPHLSELSVNSQGGVAPANVTLSPNLSPDTKQASPLISPLLNDQACPRTDDEDEGRRKRFPTDKAYFIAKEVSTTERTYLKDLEVITSWFQSTVSKEDAMPEALKSLIFPNFEPLHKFHTNFLKEIEQRLALWEGRSNAQIRDYQRIGDVMLKNIQGMKHLAAHLWKHSEALEALENGIKSSRRLENFCRDFELQKVCYLPLNTFLLRPLHRLMHYKQVLERLCKHHPPSHADFRDCRAALAEITEMVAQLHGTMIKMENFQKLHELKKDLIGIDNLVVPGREFIRLGSLSKLSGKGLQQRMFFLFNDVLLYTSRGLTASNQFKVHGQLPLYGMTIEESEDEWGVPHCLTLRGQRQSIIVAASSRSEMEKWVEDIQMAIDLAEKSSSPAPEFLASSPPDNKSPDEATAADQESEDDLSASRTSLERQAPHRGNTMVHVCWHRNTSVSMVDFSIAVENQLSGNLLRKFKNSNGWQKLWVVFTNFCLFFYKSHQDNHPLASLPLLGYSLTIPSESENIQKDYVFKLHFKSHVYYFRAESEYTFERWMEVIRSATSSASRPHVLSHKESLVY
B2: SNRPA1 (protein, UniProt P09661 2-255, looked up)
U2 small nuclear …: VKLTAELIEQAAQYTNAVRDRELDLRGYKIPVIENLGATLDQFDAIDFSDNEIRKLDGFPLLRRLKTLLVNNNRICRIGEGLDQALPCLTELILTNNSLVELGDLDPLASLKSLTYLSILRNPVTNKKHYRLYVIYKVPQVRVLDFQKVKLKERQEAEKMFKGKRGAQLAKDIARRSKTFNPGAGLPTDKKKGGPSPGDVEAIKNAIANASTLAEVERLKGLLQSGQIPGRERRSGPTDDGEEEMEEDTVTNGS
B3: BST2 (protein, UniProt Q10589 1-161, looked up)
Bone marrow stromal antigen 2: MASTSYDYCRVPMEDGDKRCKLLLGIGILVLLIIVILGVPLIIFTIKANSEACRDGLRAVMECRNVTHLLQQELTEAQKGFQDVEAQAATCNHTVMALMASLDAEKAQGQKKVEELEGEITTLNHKLQDASAEVERLRRENQVLSVRIADKKYYPSSQDSS
B4: MYBBP1A (protein, UniProt Q9BQG0 1-1328, looked up)
Myb-binding protein 1A: MESRDPAQPMSPGEATQSGARPADRYGLLKHSREFLDFFWDIAKPEQETRLAATEKLLEYLRGRPKGSEMKYALKRLITGLGVGRETARPCYSLALAQLLQSFEDLPLCSILQQIQEKYDLHQVKKAMLRPALFANLFGVLALFQSGRLVKDQEALMKSVKLLQALAQYQNHLQEQPRKALVDILSEVSKATLQEILPEVLKADLNIILSSPEQLELFLLAQQKVPSKLKKLVGSVNLFSDENVPRLVNVLKMAASSVKKDRKLPAIALDLLRLALKEDKFPRFWKEVVEQGLLKMQFWPASYLCFRLLGAALPLLTKEQLHLVMQGDVIRHYGEHVCTAKLPKQFKFAPEMDDYVGTFLEGCQDDPERQLAVLVAFSSVTNQGLPVTPTFWRVVRFLSPPALQGYVAWLRAMFLQPDLDSLVDFSTNNQKKAQDSSLHMPERAVFRLRKWIIFRLVSIVDSLHLEMEEALTEQVARFCLFHSFFVTKKPTSQIPETKHPFSFPLENQAREAVSSAFFSLLQTLSTQFKQAPGQTQGGQPWTYHLVQFADLLLNHSHNVTTVTPFTAQQRQAWDRMLQTLKELEAHSAEARAAAFQHLLLLVGIHLLKSPAESCDLLGDIQTCIRKSLGEKPRRSRTKTIDPQEPPWVEVLVEILLALLAQPSHLMRQVARSVFGHICSHLTPRALQLILDVLNPETSEDENDRVVVTDDSDERRLKGAEDKSEEGEDNRSSESEEESEGEESEEEERDGDVDQGFREQLMTVLQAGKALGGEDSENEEELGDEAMMALDQSLASLFAEQKLRIQARRDEKNKLQKEKALRRDFQIRVLDLVEVLVTKQPENALVLELLEPLLSIIRRSLRSSSSKQEQDLLHKTARIFTHHLCRARRYCHDLGERAGALHAQVERLVQQAGRQPDSPTALYHFNASLYLLRVLKGNTAEGCVHETQEKQKAGTDPSHMPTGPQAASCLDLNLVTRVYSTALSSFLTKRNSPLTVPMFLSLFSRHPVLCQSLLPILVQHITGPVRPRHQACLLLQKTLSMREVRSCFEDPEWKQLMGQVLAKVTENLRVLGEAQTKAQHQQALSSLELLNVLFRTCKHEKLTLDLTVLLGVLQGQQQSLQQGAHSTGSSRLHDLYWQAMKTLGVQRPKLEKKDAKEIPSATQSPISKKRKKKGFLPETKKRKKRKSEDGTPAEDGTPAATGGSQPPSMGRKKRNRTKAKVPAQANGTPTTKSPAPGAPTRSPSTPAKSPKLQKKNQKPSQVNGAPGSPTEPAGQKQHQKALPKKGVLGKSPLSALARKKARLSLVIRSPSLLQSGAKKKAQVRKAGKP
B5: PATL1 (protein, UniProt Q86TB9 1-770, looked up)
Protein PAT1 homolog 1: MFRYESLEDCPLDEDEDAFQGLGEEDEEIDQFNDDTFGSGAVDDDWQEAHERLAELEEKLPVAVNEQTGNGERDEMDLLGDHEENLAERLSKMVIENELEDPAIMRAVQTRPVLQPQPGSLNSSIWDGSEVLRRIRGPLLAQEMPTVSVLEYALPQRPPQGPEDDRDLSERALPRRSTSPIIGSPPVRAVPIGTPPKQMAVPSFTQQILCPKPVHVRPPMPPRYPAPYGERMSPNQLCSVPNSSLLGHPFPPSVPPVLSPLQRAQLLGGAQLQPGRMSPSQFARVPGFVGSPLAAMNPKLLQGRVGQMLPPAPGFRAFFSAPPSATPPPQQHPPGPGPHLQNLRSQAPMFRPDTTHLHPQHRRLLHQRQQQNRSQHRNLNGAGDRGSHRSSHQDHLRKDPYANLMLQREKDWVSKIQMMQLQSTDPYLDDFYYQNYFEKLEKLSAAEEIQGDGPKKERTKLITPQVAKLEHAYKPVQFEGSLGKLTVSSVNNPRKMIDAVVTSRSEDDETKEKQVRDKRRKTLVIIEKTYSLLLDVEDYERRYLLSLEEERPALMDDRKHKICSMYDNLRGKLPGQERPSDDHFVQIMCIRKGKRMVARILPFLSTEQAADILMTTARNLPFLIKKDAQDEVLPCLLSPFSLLLYHLPSVSITSLLRQLMNLPQSAATPALSNPHLTAVLQNKFGLSLLLILLSRGEDLQSSDPATESTQNNQWTEVMFMATRELLRIPQAALAKPISIPTNLVSLFSRYVDRQKLNLLETKLQLVQGIR

Assays:
[1] = test system: GFP-14-3-3β and its binding proteins; assay: GFP-14-3-3β co-IP with LC-MS/MS label-free quantification, untreated versus PP1c-treated; set-up: species or system human; conditions: pairwise comparison PP1 vs untreated
GFP-14-3-3β = GFP-14-3-3β co-IP with LC-MS/MS, untreated GFP-14-3-3β versus GFP control (14-3-3 interactome); format: binding, human; conditions: pairwise comparison untreated vs GFP
[2] = log2 difference, label-free quantification, 3 replicates each

Molecule	Difference (log2), PP1 vs untreated [1]	Difference (log2), untreated vs GFP (GFP-14-3-3β)	Difference (log2), PP1 vs untreated [1, 2]	Difference (log2), untreated vs GFP (GFP-14-3-3β; [2])
B1	-0.03585 log2	0.5364 log2		
B2	-0.04086 log2	0.8199 log2		
B3			1.808	-3.2427
B4	-0.04518 log2	2.289 log2		
B5	-0.05274 log2	-0.4586 log2		
